Results: PMC5743471 (Theranostics, 2018)

Molecular target: mouse serum albumin (mouse, UniProt P07724 25-608)
Test: SPR

B1: ABD-iTEP-pOVA (designed binder)
chain: LAEAKVLANRELDKYGVSDFYKRLINKAKTVEGVEALKLHILAALPGVGVPGGVGVPGGVGVPGGVGVPGGVGVPGGVGVPGGVGVPGGVGVPGGVGVPGGVGVPGGVGVPGGVGVPGGVGVPGGVGVPGGVGVPGGVGVPGGVGVPGGVGVPGGVGVPGGVGVPGGVGVPGGVGVPGGVGVPGGVGVPGGVGVPGGVGVPGGVGVPGGVGVPGGVGVPGGVGVPGGVGVPGGVGVPGGVGVPGGVGVPGGVGVPGGVLPGVGGVLPGVGGVLPGVGGVLPGVGGVLPGVGGVLPGVGGVLPGVGGVLPGVGGVLPGVGGVLPGVGGVLPGVGGVLPGVGGVLPGVGGVLPGVGGVLPGVGGVLPGVGGSIINFEKL
Kd: 1.4 ± 0.1 nM

B2: ABD-iTEP (designed binder)
chain: LAEAKVLANRELDKYGVSDFYKRLINKAKTVEGVEALKLHILAALPGVGVPGGVGVPGGVGVPGGVGVPGGVGVPGGVGVPGGVGVPGGVGVPGGVGVPGGVGVPGGVGVPGGVGVPGGVGVPGGVGVPGGVGVPGGVGVPGGVGVPGGVGVPGGVGVPGGVGVPGGVGVPGGVGVPGGVGVPGGVGVPGGVGVPGGVGVPGGVGVPGGVGVPGGVGVPGGVGVPGGVGVPGGVGVPGGVGVPGGVGVPGGVGVPGGVLPGVGGVLPGVGGVLPGVGGVLPGVGGVLPGVGGVLPGVGGVLPGVGGVLPGVGGVLPGVGGVLPGVGGVLPGVGGVLPGVGGVLPGVGGVLPGVGGVLPGVGGVLPGVG
Kd: 1.41 ± 0.04 nM | koff: 0.00305 s⁻¹ | kon: 2.17e+06 M⁻¹ s⁻¹
